Assay results reported in US20210230279A1 (University of California, published 2021).

Columns and labels:
[1] = target: T1, recombinant human integrin αvβ3 (human, UniProt P05106 27-718); experiment: ELISA on coated recombinant human integrin; 0 = no apparent binding
T1 construct: Bought; also called αvβ3 (R&D systems)
Text: (§1) Binding was quantified by intensity as 0-4 (0 representing no apparent binding; 4 representing robust binding) and results normalized to expression.

[2] = target: T2, recombinant human integrin αvβ1 (human, UniProt P05556 21-728); experiment: as above
T2 construct: Bought; also called αvβ1 (R&D systems)
Text: as §1

[3] = target: T3, recombinant human integrin αvβ5 (human, UniProt P18084 24-719); experiment: as above
T3 construct: Bought; also called αvβ5 (R&D systems)
Text: as §1

[4] = target: T4, recombinant human integrin αvβ6 (human, UniProt P18564 22-707); experiment: ELISA: integrin coated on plate, supernatant of transfected 293 cells at 1/10 dilution, anti-mouse IgG-HRP; score normalized to expression;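 further: scale runs from 0 (no apparent binding) to 4 (robust binding), with scores adjusted for clone protein expression as determined by a murine IgG ELISA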
T4 construct: also called αvβ6 (R&D systems); αvβ6 receptor
Text: as §1

[5] = target: T5, recombinant human integrin αvβ8 (human, UniProt P06756 31-992; P26012 43-684); experiment: as above
T5 construct: also called Human Integrin alpha V beta 8; purified recombinant αvβ8
T5 sequence (P06756 31-992 limits assumed, chain 1 of 2): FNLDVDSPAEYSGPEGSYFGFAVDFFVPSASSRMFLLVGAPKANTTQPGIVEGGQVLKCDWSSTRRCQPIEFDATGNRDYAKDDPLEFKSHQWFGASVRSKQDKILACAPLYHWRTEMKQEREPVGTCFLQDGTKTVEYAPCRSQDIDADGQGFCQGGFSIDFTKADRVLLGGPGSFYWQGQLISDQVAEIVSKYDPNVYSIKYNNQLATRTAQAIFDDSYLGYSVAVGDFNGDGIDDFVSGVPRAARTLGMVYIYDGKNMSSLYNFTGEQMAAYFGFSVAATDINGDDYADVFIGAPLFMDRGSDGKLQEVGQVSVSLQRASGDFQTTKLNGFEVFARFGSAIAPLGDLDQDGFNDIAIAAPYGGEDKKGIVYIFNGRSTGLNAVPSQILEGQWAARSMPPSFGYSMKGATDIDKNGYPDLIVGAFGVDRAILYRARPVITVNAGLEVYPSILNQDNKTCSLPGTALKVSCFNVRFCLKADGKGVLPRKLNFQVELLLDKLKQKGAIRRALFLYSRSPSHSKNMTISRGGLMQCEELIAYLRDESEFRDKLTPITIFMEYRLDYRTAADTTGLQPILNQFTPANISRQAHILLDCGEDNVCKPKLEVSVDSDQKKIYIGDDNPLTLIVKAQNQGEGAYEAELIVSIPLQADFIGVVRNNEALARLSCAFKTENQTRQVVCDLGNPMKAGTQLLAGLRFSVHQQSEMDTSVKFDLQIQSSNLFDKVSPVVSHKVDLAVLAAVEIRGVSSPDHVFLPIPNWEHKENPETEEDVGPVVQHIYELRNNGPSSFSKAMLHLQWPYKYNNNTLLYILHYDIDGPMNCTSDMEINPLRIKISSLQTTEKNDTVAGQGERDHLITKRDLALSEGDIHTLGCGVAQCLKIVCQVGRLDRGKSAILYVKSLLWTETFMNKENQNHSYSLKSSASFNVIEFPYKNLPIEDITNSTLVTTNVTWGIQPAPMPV
T5 sequence (P26012 43-684 limits assumed, chain 2 of 2): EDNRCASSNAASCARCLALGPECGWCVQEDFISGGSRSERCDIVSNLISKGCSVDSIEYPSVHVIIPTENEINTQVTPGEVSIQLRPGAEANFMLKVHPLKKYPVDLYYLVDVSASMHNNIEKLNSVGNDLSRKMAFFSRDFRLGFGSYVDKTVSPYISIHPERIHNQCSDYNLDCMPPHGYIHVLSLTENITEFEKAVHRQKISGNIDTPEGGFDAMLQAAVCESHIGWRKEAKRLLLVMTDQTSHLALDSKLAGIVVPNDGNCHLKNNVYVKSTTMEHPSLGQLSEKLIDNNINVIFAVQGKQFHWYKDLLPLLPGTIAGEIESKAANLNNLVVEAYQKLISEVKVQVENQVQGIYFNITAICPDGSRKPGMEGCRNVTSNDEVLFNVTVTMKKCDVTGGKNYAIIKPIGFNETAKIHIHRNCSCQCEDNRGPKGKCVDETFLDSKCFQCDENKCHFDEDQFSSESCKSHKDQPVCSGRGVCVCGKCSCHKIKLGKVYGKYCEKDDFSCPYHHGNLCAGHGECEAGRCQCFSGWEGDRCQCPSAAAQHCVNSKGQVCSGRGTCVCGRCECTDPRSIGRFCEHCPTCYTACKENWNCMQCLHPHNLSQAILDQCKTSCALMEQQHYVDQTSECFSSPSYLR
Text: as §1

T2 sequence (chain, as listed by the source limits assumed, chain 1 of 2): as the sequence (P06756 31-992 limits assumed, chain 1 of 2) above
T2 sequence (P05556 21-728 limits assumed, chain 2 of 2): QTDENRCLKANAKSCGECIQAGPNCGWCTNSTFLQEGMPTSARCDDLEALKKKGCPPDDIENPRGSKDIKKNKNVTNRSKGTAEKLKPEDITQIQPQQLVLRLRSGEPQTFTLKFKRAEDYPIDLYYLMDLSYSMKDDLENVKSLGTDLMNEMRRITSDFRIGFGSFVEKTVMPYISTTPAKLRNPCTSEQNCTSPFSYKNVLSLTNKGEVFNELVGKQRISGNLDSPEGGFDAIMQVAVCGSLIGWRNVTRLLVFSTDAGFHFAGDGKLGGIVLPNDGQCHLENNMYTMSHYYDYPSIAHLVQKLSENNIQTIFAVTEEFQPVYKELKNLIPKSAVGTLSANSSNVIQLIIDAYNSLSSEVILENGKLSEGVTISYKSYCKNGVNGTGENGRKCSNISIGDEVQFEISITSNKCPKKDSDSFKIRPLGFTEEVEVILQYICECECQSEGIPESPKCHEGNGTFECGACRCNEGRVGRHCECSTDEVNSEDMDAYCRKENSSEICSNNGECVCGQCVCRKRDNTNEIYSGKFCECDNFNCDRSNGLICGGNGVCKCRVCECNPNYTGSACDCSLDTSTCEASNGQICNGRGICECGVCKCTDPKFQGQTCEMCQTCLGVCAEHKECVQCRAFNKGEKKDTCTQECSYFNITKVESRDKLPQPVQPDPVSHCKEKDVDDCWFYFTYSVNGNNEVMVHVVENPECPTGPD
T3 sequence (chain, as listed by the source limits assumed, chain 1 of 2): as the sequence (P06756 31-992 limits assumed, chain 1 of 2) above
T3 sequence (P18084 24-719 limits assumed, chain 2 of 2): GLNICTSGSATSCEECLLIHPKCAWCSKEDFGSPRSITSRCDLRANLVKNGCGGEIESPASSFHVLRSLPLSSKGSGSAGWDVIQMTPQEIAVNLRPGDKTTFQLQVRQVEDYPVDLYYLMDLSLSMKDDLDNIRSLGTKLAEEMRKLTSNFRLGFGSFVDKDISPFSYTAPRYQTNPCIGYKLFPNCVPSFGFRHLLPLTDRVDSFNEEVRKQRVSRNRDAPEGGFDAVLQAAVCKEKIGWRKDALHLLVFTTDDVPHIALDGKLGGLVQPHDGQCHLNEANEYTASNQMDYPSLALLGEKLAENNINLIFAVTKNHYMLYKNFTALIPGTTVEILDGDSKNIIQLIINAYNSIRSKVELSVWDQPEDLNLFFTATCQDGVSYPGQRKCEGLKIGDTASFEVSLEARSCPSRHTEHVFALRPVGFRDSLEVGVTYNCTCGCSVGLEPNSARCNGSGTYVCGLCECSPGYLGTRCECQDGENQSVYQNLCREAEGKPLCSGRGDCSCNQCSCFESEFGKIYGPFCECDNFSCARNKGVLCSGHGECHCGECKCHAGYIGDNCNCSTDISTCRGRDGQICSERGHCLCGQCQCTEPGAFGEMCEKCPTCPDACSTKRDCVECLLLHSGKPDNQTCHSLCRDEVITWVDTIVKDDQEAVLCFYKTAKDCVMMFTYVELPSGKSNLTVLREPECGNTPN
T1 sequence (chain, as listed by the source limits assumed, chain 1 of 2): as the sequence (P06756 31-992 limits assumed, chain 1 of 2) above
T1 sequence (P05106 27-718 limits assumed, chain 2 of 2): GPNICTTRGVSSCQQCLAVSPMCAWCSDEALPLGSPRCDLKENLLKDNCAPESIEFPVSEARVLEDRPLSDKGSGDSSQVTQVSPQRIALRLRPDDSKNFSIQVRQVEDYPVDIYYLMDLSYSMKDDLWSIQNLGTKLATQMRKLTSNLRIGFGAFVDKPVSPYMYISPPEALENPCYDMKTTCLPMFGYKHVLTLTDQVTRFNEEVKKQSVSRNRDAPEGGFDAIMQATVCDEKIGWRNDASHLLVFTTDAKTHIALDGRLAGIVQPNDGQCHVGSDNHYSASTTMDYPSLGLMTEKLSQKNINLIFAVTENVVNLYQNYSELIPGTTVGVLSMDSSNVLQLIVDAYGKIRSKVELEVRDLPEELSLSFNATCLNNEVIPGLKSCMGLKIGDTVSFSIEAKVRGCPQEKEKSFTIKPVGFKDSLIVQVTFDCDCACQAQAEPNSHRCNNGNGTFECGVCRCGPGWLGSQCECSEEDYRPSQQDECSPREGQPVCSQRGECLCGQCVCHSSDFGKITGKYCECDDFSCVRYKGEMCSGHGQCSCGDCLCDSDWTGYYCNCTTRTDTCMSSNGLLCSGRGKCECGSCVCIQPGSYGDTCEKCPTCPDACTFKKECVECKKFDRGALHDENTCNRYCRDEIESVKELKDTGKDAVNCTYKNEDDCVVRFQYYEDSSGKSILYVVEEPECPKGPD
T4 sequence (chain, as listed by the source limits assumed, chain 1 of 2): as the sequence (P06756 31-992 limits assumed, chain 1 of 2) above
T4 sequence (P18564 22-707 limits assumed, chain 2 of 2): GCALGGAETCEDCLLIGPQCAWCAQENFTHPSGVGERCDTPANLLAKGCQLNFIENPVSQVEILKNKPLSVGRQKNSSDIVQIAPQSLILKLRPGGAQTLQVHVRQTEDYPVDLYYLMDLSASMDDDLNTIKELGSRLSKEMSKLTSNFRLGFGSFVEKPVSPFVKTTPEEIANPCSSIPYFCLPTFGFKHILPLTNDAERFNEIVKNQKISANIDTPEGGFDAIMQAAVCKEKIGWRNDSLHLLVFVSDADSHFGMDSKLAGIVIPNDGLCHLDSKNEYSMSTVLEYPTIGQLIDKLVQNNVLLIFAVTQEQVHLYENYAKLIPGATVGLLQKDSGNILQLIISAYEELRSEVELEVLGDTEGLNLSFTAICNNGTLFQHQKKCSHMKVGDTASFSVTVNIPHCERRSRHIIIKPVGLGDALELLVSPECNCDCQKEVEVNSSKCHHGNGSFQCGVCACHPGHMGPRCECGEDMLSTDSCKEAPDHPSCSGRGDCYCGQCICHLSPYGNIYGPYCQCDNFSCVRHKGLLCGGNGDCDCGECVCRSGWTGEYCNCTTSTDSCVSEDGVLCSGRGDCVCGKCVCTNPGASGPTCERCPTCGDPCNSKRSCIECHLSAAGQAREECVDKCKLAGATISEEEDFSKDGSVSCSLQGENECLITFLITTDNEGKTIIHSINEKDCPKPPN

Binder	binding intensity score (0-4) [4] [score 0-4]	binding intensity score (0-4) [5] [score 0-4]	binding result [1]	binding result [2]	binding result [3]
C6 VH / RGD3-3 Vk murine IgG (antibody, V domains shown, Murine IgG, supernatant of 293 cells; CDRL1 swap into the C6D4 murine IgG vector, VH not altered; also called C6RGD3-3) VH: QIQLLQSGPELKKPGETVKISCKASGYTFTDYSMHWVKQAPGKGLKWVARINTETGEPTFADDFRGRFAVSLETSASTAYLQINNLKNEDTATYFCAIFYYGRDSWGQGTTLTVSS VL: DIVMTQSPSSLAVSAGEKVTMSCKSSQSLLGRGDLGRLKKQKNALAWYQQKPGQSPRLLIYWASTRESGVPDRFTGSGSGTDFTLTISSVQAEDLAVYYCKQSYNLLSFGAGTKLELKR	4	4	no binding (tested: supernatant at 1/10 dilution)	no binding (tested: supernatant at 1/10 dilution)	no binding (tested: supernatant at 1/10 dilution)
C6 VH / RGD3-6 Vk murine IgG (antibody, V domains shown, Murine IgG, supernatant of 293 cells; CDRL1 swap into the C6D4 murine IgG vector, VH not altered; also called C6RGD3-6) VH: QIQLLQSGPELKKPGETVKISCKASGYTFTDYSMHWVKQAPGKGLKWVARINTETGEPTFADDFRGRFAVSLETSASTAYLQINNLKNEDTATYFCAIFYYGRDSWGQGTTLTVSS VL: DIVMTQSPSSLAVSAGEKVTMSCKSSQSLLGRGDLGRLKNALAWYQQKPGQSPRLLIYWASTRESGVPDRFTGSGSGTDFTLTISSVQAEDLAVYYCKQSYNLLSFGAGTKLELKR	4	4	no binding (tested: supernatant at 1/10 dilution)	no binding (tested: supernatant at 1/10 dilution)	no binding (tested: supernatant at 1/10 dilution)

Now from value to binder, other results behind:

binding intensity score (0-4) [4] [score 0-4]	binding intensity score (0-4) [5] [score 0-4]	Binder	binding result [1]	binding result [2]	binding result [3]
4	4	C6 VH / RGD3-4 Vk murine IgG (antibody, V domains shown, Murine IgG, supernatant of 293 cells; CDRL1 swap into the C6D4 murine IgG vector, VH not altered; also called C6RGD3-4) VH: QIQLLQSGPELKKPGETVKISCKASGYTFTDYSMHWVKQAPGKGLKWVARINTETGEPTFADDFRGRFAVSLETSASTAYLQINNLKNEDTATYFCAIFYYGRDSWGQGTTLTVSS VL: DIVMTQSPSSLAVSAGEKVTMSCKSSQSLLGRGDLGRLKKQNALAWYQQKPGQSPRLLIYWASTRESGVPDRFTGSGSGTDFTLTISSVQAEDLAVYYCKQSYNLLSFGAGTKLELKR	no binding (tested: supernatant at 1/10 dilution)	no binding (tested: supernatant at 1/10 dilution)	no binding (tested: supernatant at 1/10 dilution)
4	1	C6 VH / RGD3-1 Vk murine IgG (antibody, V domains shown, Murine IgG, supernatant of 293 cells; CDRL1 swap into the C6D4 murine IgG vector, VH not altered; also called C6RGD3-1) VH: QIQLLQSGPELKKPGETVKISCKASGYTFTDYSMHWVKQAPGKGLKWVARINTETGEPTFADDFRGRFAVSLETSASTAYLQINNLKNEDTATYFCAIFYYGRDSWGQGTTLTVSS VL: DIVMTQSPSSLAVSAGEKVTMSCKSSQSLLGRGDLGRLKKQKDHNALAWYQQKPGQSPRLLIYWASTRESGVPDRFTGSGSGTDFTLTISSVQAEDLAVYYCKQSYNLLSFGAGTKLELKR	no binding (tested: supernatant at 1/10 dilution)	no binding (tested: supernatant at 1/10 dilution)	no binding (tested: supernatant at 1/10 dilution)
2	1	C6 VH / RGD3-11 Vk murine IgG (antibody, V domains shown, Murine IgG, supernatant of 293 cells; CDRL1 swap into the C6D4 murine IgG vector, VH not altered; also called C6RGD3-11) VH: QIQLLQSGPELKKPGETVKISCKASGYTFTDYSMHWVKQAPGKGLKWVARINTETGEPTFADDFRGRFAVSLETSASTAYLQINNLKNEDTATYFCAIFYYGRDSWGQGTTLTVSS VL: DIVMTQSPSSLAVSAGEKVTMSCKSSQSLLGRGDLGRLKKQKDWYQQKPGQSPRLLIYWASTRESGVPDRFTGSGSGTDFTLTISSVQAEDLAVYYCKQSYNLLSFGAGTKLELKR	no binding (tested: supernatant at 1/10 dilution)	no binding (tested: supernatant at 1/10 dilution)	no binding (tested: supernatant at 1/10 dilution)
